Results reported in PMC5717261.

Target: Recombinant human MASP-2 (stabilized in a proenzyme form by mutation of the active site Ser 618 into Ala) (human)
Assay: SPR; BIAcore 3000, 25 °C; BMP-1, mTLL-1 or MASP-2 immobilised by amine coupling on CM5; C1q or MBL injected (60 µl, 20 µl/min) at several concentrations in 50 mM triethanolamine-HCl, 145 mM NaCl, 2 mM CaCl2, 0.005% surfactant P20, pH 7.4; global fit to a 1:1 Langmuir model; apparent KD from kd/ka

Sequence of Recombinant human mannose-binding lectin (MBL) (P11226 21-248): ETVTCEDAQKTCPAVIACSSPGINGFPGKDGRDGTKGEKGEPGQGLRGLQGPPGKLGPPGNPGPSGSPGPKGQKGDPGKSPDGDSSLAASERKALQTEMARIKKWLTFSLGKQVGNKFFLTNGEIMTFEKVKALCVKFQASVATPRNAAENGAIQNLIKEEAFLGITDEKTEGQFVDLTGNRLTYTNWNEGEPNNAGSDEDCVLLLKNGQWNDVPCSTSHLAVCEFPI

Kd: 1.7 nM
koff: 0.00047 s⁻¹
kon: 280000 M⁻¹ s⁻¹
Substance: Recombinant human mannose-binding lectin (MBL) (from UniProt P11226 21-248) (natural protein)
